Assay results taken from the supplement of paper PMC10567573.

B1: PDS5B (parent)
chain: IYKKYALQSAAGKDAAKQIAWIKD
B2: TSN (parent)
chain: FLAAEQDIREEIRKVVQSLEQTAR

Variants of: B1
Experiment: protein stability index of a GFP-peptide fusion (GPS, HEK-293T) (PSI 1-6); higher = more stable
Conditions: c terminus: a fixed tail appended
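Note: lentivirally expressed fusions sorted by FACS into six bins by GFP to DsRed ratio, PSI derived from sequencing read proportions per bin multiplied by bin number.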

Protein stability index: each site, then its substitutions
I1: L 2.12, M 2.08, E 3.79, G 2.81, D 3.71, H 3.36, F 1.68, C 3.19, K 2.75, A 2.62

Variants of: B2
Experiment: as above
Conditions: c terminus: a fixed tail appended

Protein stability index of substitutions, site by site:
K14: N 2.52, G 2.03, Y 2.3, F 1.48, T 2.25, C 2.07, R 3.3, D 3.41, H 1.98, S 2.07, L 2.13, M 2.24, V 1.83, I 1.39, P 3.76, E 2.36, W 1.77, A 2.08, Q 2.05
V16: A 2.3, E 2.21, I 1.86, T 1.68, M 1.73, N 3.03, K 2.38, Y 2.83, F 2.77, D 3.78, S 1.93, Q 2.35, G 3.36, C 2.13, H 2.26, W 1.74, R 2.15, L 2.2, P 3.24
R9: Q 2.04, L 2.26, K 2.69, C 1.43, P 3.1, T 2.06, F 2.4, D 2.31, H 1.49, Y 2.29, M 2.11, A 1.48, V 1.75, I 1.84, S 2.26, E 1.69, N 2.28, W 1.64, G 3.12
Q21: L 1.91, Y 1.64, D 1.78, T 1.92, K 1.78, I 2.27, G 2.08, S 1.9, R 2.15, W 1.87, V 1.5, N 1.83, H 1.8, M 1.68, F 1.81, P 2.41, A 2.14, E 1.9, C 2.01
E11: C 2.21, P 3.15, W 1.59, H 2.58, N 3.58, K 2.65, Q 2.29, V 1.95, D 2.77, G 2.68, T 2.43, A 2.02, R 2.89, L 2.19, I 1.72, S 2.47, M 1.9, F 1.59, Y 1.76
A23: R 1.87, K 1.75, C 1.99, T 1.76, E 2.68, W 2.1, S 1.8, F 2.19, P 2.15, V 2.13, N 1.8, L 2.34, H 2.11, D 1.57, Y 1.88, M 1.87, G 2.21, I 2.52, Q 1.96
S18: P 2.3, W 1.62, V 2.52, N 2.25, C 2.28, A 1.67, F 1.39, G 1.7, Y 1.57, E 2.54, Q 2.24, K 2.35, T 2.18, I 1.92, D 2.31, L 2.22, H 1.71, M 2.22, R 2.27
I12: R 4.3, K 3.98, L 2.63, T 3.07, Y 3.2, D 4.64, H 4.29, P 4.45, E 4.52, G 3.81, W 2.89, S 2.59, F 2.89, A 2.32, N 4.68, V 2.1, C 1.58, M 1.94, Q 4.06
T22: A 2.38, L 3.07, V 2.55, G 1.24, Q 2.1
